Series [1] addresses Cdc2-cyclin B1 complex containing the catalytically inactive N133A mutant of Xenopus Cdc2 (Xenopus). The series can be described thus: cell-based or functional assay.
Series [2] has as its target Cdc2-cyclin B1 complex containing the Y15F mutant of Xenopus Cdc2 (Xenopus). The series can be described thus: cell-based or functional assay.
Series [3] has as its target Cdc2-cyclin B1 complex containing the T14A mutant of Xenopus Cdc2 (Xenopus). The series can be described thus: cell-based or functional assay.
Series [4] has as its target Purified recombinant Cdc2-cyclin B1 complex containing wild-type Xenopus Cdc2 (Xenopus). The series is described as follows: cell-based or functional assay.
Series [5] has as its target Cdc2-cyclin B1 complex containing the T14A mutant of Xenopus Cdc2.
The target in series [6] is Cdc2-cyclin B1 complex containing the triple mutant T14A,Y15F,N133A of Xenopus Cdc2.
The target of series [7] is Purified recombinant Cdc2-cyclin B1 complex containing wild-type Xenopus Cdc2.
Series [8] has as its target Cdc2-cyclin B1 complex containing the Y15F mutant of Xenopus Cdc2.
Series [9] has as its target Cdc2-cyclin B1 complex containing the T161A mutant of Xenopus Cdc2.
Series [10] addresses Cdc2-cyclin B1 complex containing the T14A,Y15F double mutant of Xenopus Cdc2.
In series [11] the target is Cdc2-cyclin B1 complex containing the catalytically inactive N133A mutant of Xenopus Cdc2.

Three molecules from US6387642 can be followed below.

B1: Recombinant histidine-tagged Myt1 purified from baculovirus-infected Sf9 cells (enzyme, not shown: small tags and cut ends)
chain: MPVPGDDMGETPLTRTPIPMPAYFSQAEQSFSLKKRGRSLCYTLPPRPPVKSALPVSRIFPNKQRSWSQPRPQSVSFRSPQNKTPASKLYDQSKGDTFFKQCFKSICKLGRGSFGEVYKVQSLEDGCFYAVKRSVSPFRGESDRQRKLQEVRKHERVGEHPNCLRFVRAWEEKRMLYLQTELCAGSLQQHSEEFAGSLPPRRVWNITCDLLHGLKHLHDRNLLHLDIKPANVFISFSGVCKLGDFGLMVELDGTEGSGEAQEGDPRYMAPELLDGIFSKAADVFSLGMSLLEVACNMELPKGGDGWQQLRQGHLPTEFTSDLPPDFLKVLSAMLEPDYRRRATVDWLLSLPAIRNAERWRMVTLAQERTLGKIIAVYQFIVWLLSFVFQWLNRPVIGFLHYCGLRALPRSPPCSPFPNHLGESSFSSDWDDESLGDDVFEVPPSPLATHRNLTYHGQELIGRHSPDLLSRPSLGSTSTPRNLSPEFSMRKRSALPLTPNVSRISQDSTGKSRSPSTSHSSSGFVDAEVQRTLFLPRNLLGMFDDATEQ
For the molecule B1, in series [1], the phosphoamino acid analysis: phosphoserine was below 0.7%, the phosphoamino acid analysis: phosphothreonine amounted to 75% and the phosphoamino acid analysis: phosphotyrosine worked out at 24%. In addition, in series [2], the phosphoamino acid analysis: share of 32P in phosphothreonine was determined as 96%. In [3], this molecule displayed a phosphoamino acid analysis: share of label in phosphotyrosine of 89%. In series [4], the phosphoamino acid analysis: share of 32P in phosphothreonine was found to be 77% and the phosphoamino acid analysis: share of 32P in phosphotyrosine worked out at 20%. Besides, in series [5], the “phosphorylation of Cdc2 mutant, autoradiography” value (“phosphorylation of Cdc2 mutant” for short) was “Myt1 can phosphorylate both the TI4A (Thr^14 changed to Ala) and Y15F (Tyr^15 changed to Phe) mutants of Cdc2”; the “reduction of Cdc2-associated histone H1 kinase activity” value (“reduction” for short) is “a large reduction in activity (60 and 50%, respectively)”. The “phosphorylation of Cdc2 mutant” value in series [6] was “the triple mutant T14A,Y15F, N133A was not a substrate for Myt1”. In series [7], the “phosphorylation of Cdc2, compared with single mutants” value was “wild-type Cdc2 appears to be phosphorylated more efficiently than either single mutant”; the “phosphorylation of Cdc2 in the presence of [γ-32P]ATP, autoradiography” value is “Recombinant Myt1 efficiently phosphorylated cyclin-associated, wild-type Cdc2”; the “reduction” value is given as “Treatment of wild-type Cdc2 with Myt1 caused a 90% reduction in its H1 kinase activity”. Also, in series [8], the “phosphorylation of Cdc2 mutant” value is “Myt1 can phosphorylate both the TI4A (Thr^14 changed to Ala) and Y15F (Tyr^15 changed to Phe) mutants of Cdc2”; the “reduction” value was “a large reduction in activity (60 and 50%, respectively)”. The “phosphorylation of Cdc2 mutant” value in series [9] is reported as “Myt1 did not phosphorylate the T161A mutant of Cdc2 ( FIG. 2A ) on either tyrosine or threonine”. For the same molecule, in [10], the “phosphorylation and H1 kinase activity” value is “the T14A, Y15F double mutant of Cdc2 was neither phosphorylated nor inactivated by Myt1”; the “phosphorylation of Cdc2 mutant” value is “the T14A,Y15F double mutant was not a substrate for Myt1”. The “phosphorylation of Cdc2 in the presence of [γ-32P]ATP” value with monomeric Cdc2 was “Myt1 did not phosphorylate monomeric Cdc2”.

B2: Endogenous Xenopus Myt1 from interphase egg extract (protein)
chain: MPVPGDDMGETPLTRTPIPMPAYFSQAEQSFSLKKRGRSLCYTLPPRPPVKSALPVSRIFPNKQRSWSQPRPQSVSFRSPQNKTPASKLYDQSKGDTFFKQCFKSICKLGRGSFGEVYKVQSLEDGCFYAVKRSVSPFRGESDRQRKLQEVRKHERVGEHPNCLRFVRAWEEKRMLYLQTELCAGSLQQHSEEFAGSLPPRRVWNITCDLLHGLKHLHDRNLLHLDIKPANVFISFSGVCKLGDFGLMVELDGTEGSGEAQEGDPRYMAPELLDGIFSKAADVFSLGMSLLEVACNMELPKGGDGWQQLRQGHLPTEFTSDLPPDFLKVLSAMLEPDYRRRATVDWLLSLPAIRNAERWRMVTLAQERTLGKIIAVYQFIVWLLSFVFQWLNRPVIGFLHYCGLRALPRSPPCSPFPNHLGESSFSSDWDDESLGDDVFEVPPSPLATHRNLTYHGQELIGRHSPDLLSRPSLGSTSTPRNLSPEFSMRKRSALPLTPNVSRISQDSTGKSRSPSTSHSSSGFVDAEVQRTLFLPRNLLGMFDDATEQ
On to B2, for which, in series [7], the “phosphorylation of Cdc2 by immunoprecipitated Myt1” value is on record as “The immunoprecipitated Myt1 protein efficiently phosphorylated Cdc2 in both assays”; the “share of Cdc2 shifted to its Thr14-Tyr15 doubly phosphorylated form by the Myt1-depleted extract” value is “the Myt1-depleted extract phosphorylated shifted only about 20% of the substrate”; the “share of Cdc2 shifted to its Thr14-Tyr15 doubly phosphorylated form by the control extract” value is given as “the control extract shifted ˜80% of the Cdc2 to its Thr^14-Tyr^15 doubly phosphorylated form”; the “tyrosine phosphorylation of Cdc2 in Myt1-depleted extract, anti-phosphotyrosine immunoblot” value is reported as “The tyrosine phosphorylation of Cdc2 was dramatically reduced in the Myt1-depleted extract”.

B3: M phase form of endogenous Xenopus Myt1 (from cytostatic factor-arrested egg extract) (protein)
chain: MPVPGDDMGETPLTRTPIPMPAYFSQAEQSFSLKKRGRSLCYTLPPRPPVKSALPVSRIFPNKQRSWSQPRPQSVSFRSPQNKTPASKLYDQSKGDTFFKQCFKSICKLGRGSFGEVYKVQSLEDGCFYAVKRSVSPFRGESDRQRKLQEVRKHERVGEHPNCLRFVRAWEEKRMLYLQTELCAGSLQQHSEEFAGSLPPRRVWNITCDLLHGLKHLHDRNLLHLDIKPANVFISFSGVCKLGDFGLMVELDGTEGSGEAQEGDPRYMAPELLDGIFSKAADVFSLGMSLLEVACNMELPKGGDGWQQLRQGHLPTEFTSDLPPDFLKVLSAMLEPDYRRRATVDWLLSLPAIRNAERWRMVTLAQERTLGKIIAVYQFIVWLLSFVFQWLNRPVIGFLHYCGLRALPRSPPCSPFPNHLGESSFSSDWDDESLGDDVFEVPPSPLATHRNLTYHGQELIGRHSPDLLSRPSLGSTSTPRNLSPEFSMRKRSALPLTPNVSRISQDSTGKSRSPSTSHSSSGFVDAEVQRTLFLPRNLLGMFDDATEQ
On to B3, for which the “Cdc2-specific kinase activity of immunoprecipitated Myt1, relative to the interphase form” value in [11] was “The M phase form was about one-fifth as active as the Myt1 protein from either type of interphase extract”.
